Legend:
[1] = target: T1, Cdc42-GTPγS (activated Cdc42) (UniProt P60953 1-191)
[2] = target: T1, Cdc42-GTPγS (activated Cdc42); assay: apparent equilibrium binding constant; fluorescence titration of a fixed concentration of labeled WASP fragment with cdc42-GTPγS
Rac (activated GTPase) = Rac (activated GTPase) (UniProt P63000 1-192); assay: fluorescence response of the I-SO WASP biosensor with activated GTPases
RhoA (activated GTPase) = RhoA (activated GTPase) (UniProt P61586 1-193); assay: as above
RhoA (activated GTPase), sequence (P61586 whole entry): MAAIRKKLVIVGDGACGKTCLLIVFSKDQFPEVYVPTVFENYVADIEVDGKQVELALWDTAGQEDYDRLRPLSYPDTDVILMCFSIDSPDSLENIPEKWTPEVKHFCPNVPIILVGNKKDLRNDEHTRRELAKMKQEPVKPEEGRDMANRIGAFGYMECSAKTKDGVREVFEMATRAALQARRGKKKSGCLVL

T1 sequence (P60953 whole entry, the tested form may be a part): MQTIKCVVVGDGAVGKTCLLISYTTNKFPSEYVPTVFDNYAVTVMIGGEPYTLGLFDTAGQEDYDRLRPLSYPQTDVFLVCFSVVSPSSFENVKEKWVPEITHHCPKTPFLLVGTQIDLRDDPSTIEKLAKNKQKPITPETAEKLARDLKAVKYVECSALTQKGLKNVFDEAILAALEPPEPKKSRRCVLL

B1: Wiskott Aldrich Syndrome Protein (WASP) fragment, residues 201-320, F271C, labeled with S-SO dye 2e (other)
chain: DIQNPDITSSRYRGLPAPGPSPADKKRSGKKKISKADIGAPSGFKHVSHVGWDPQNGFDVNNLDPDLRSLCSRAGISEAQLTDAETSKLIYDFIEDQGGLEAVRQEMRRQEPLPPPPPPS
notes: also called labeled WASP fragment; WASP conjugate; not shown: C-terminal 6His fusion from pET23a
[1]
  change in fluorescence intensity: 3 fold
[2]
  Kd: 150 nM

B2: WASP fragment F271C labeled with I-SO dye (other)
chain: DIQNPDITSSRYRGLPAPGPSPADKKRSGKKKISKADIGAPSGFKHVSHVGWDPQNGFDVNNLDPDLRSLCSRAGISEAQLTDAETSKLIYDFIEDQGGLEAVRQEMRRQEPLPPPPPPS
notes: also called I-SO-WASP biosensor; I-SO labeled WASP fragment; not shown: C-terminal 6His fusion from pET23a
[1]
  increase in fluorescence intensity: 2.8 fold
Rac (activated GTPase)
  binding result: no binding
RhoA (activated GTPase)
  binding result: no binding

From patent publication US20060029946A1 (Scripps Research, published 2006)
